Source: patent publication US20220064329A1 (Novo Nordisk, published 2022)
Numbering of substitutions follows the chain as printed. In names and notes the source's numbering stands.

B1: VH SEQ ID NO 530 / VL SEQ ID NO 310 (antibody, IgG4, V domains shown)
VH: QVQLQESGPGLVEPSQTLSLTCTVSGYSISSDSAWSWIRQPPGKGLEWIGYIQYSGSTNYNPSLKSRVTISRDTSKNQFSLKLSSVTAADTAVYYCARSVNYYGNSFAVGYWGQGTLVTVSS
VL: EIVLTQSPATLSLSPGERATLSCRASQGISDYLAWYQQKPGQAPRLLIKYASQPATGIPARFSGSGSGTDFTLTISSLEPEDFAVYYCQNGHSFPLTFGQGTKLEIK
notes: humanized 11F2; IgG4 S228P/kappa
B2: VH SEQ ID NO 530 / VL SEQ ID NO 422 (antibody, IgG4, V domains shown)
VH: B1 VH
VL: B1 VL with I29V, N90Q
notes: as for B1
B3: VH SEQ ID NO 538 / VL SEQ ID NO 358 (antibody, IgG4, V domains shown)
VH: B1 VH with S30T, G45K
VL: B1 VL with A34H, A51T
notes: as for B1
B4: VH SEQ ID NO 538 / VL SEQ ID NO 326 (antibody, IgG4, V domains shown)
VH: B1 VH with S30T, G45K
VL: B1 VL with A34H, Q42E, A51T, A84G, Q100A, I106L
notes: as for B1
B5: VH SEQ ID NO 538 / VL SEQ ID NO 310 (antibody, IgG4, V domains shown)
VH: B1 VH with S30T, G45K
VL: B1 VL
notes: as for B1
B6: VH SEQ ID NO 530 / VL SEQ ID NO 494 (antibody, IgG4, V domains shown)
VH: B1 VH
VL: B1 VL with I29V, A34H, F83V
notes: as for B1
B7: VH SEQ ID NO 530 / VL SEQ ID NO 342 (antibody, IgG4, V domains shown)
VH: B1 VH
VL: B1 VL with A34H, A51T, T69R, Q100A, I106L
notes: as for B1
B8: VH SEQ ID NO 530 / VL SEQ ID NO 502 (antibody, IgG4, V domains shown)
VH: B1 VH
VL: B1 VL with I29V, A34H, A51T
notes: as for B1
B9: VH SEQ ID NO 538 / VL SEQ ID NO 414 (antibody, IgG4, V domains shown)
VH: B1 VH with S30T, G45K
VL: B1 VL with I29V
notes: as for B1
B10: VH SEQ ID NO 530 / VL SEQ ID NO 318 (antibody, IgG4, V domains shown)
VH: B1 VH
VL: B1 VL with A34H, Q42E, A51T
notes: as for B1
B11: VH SEQ ID NO 538 / VL SEQ ID NO 430 (antibody, IgG4, V domains shown)
VH: B1 VH with S30T, G45K
VL: B1 VL with I29V, A84G
notes: as for B1
B12: VH SEQ ID NO 530 / VL SEQ ID NO 398 (antibody, IgG4, V domains shown)
VH: B1 VH
VL: B1 VL with I29V, Q42E, A51T
notes: as for B1
B13: VH SEQ ID NO 538 / VL SEQ ID NO 438 (antibody, IgG4, V domains shown)
VH: B1 VH with S30T, G45K
VL: B1 VL with I29V, F83V
notes: as for B1
B14: VH SEQ ID NO 530 / VL SEQ ID NO 374 (antibody, IgG4, V domains shown)
VH: B1 VH
VL: B1 VL with I29L, A51T
notes: as for B1
B15: VH SEQ ID NO 530 / VL SEQ ID NO 382 (antibody, IgG4, V domains shown)
VH: B1 VH
VL: B1 VL with I29L, A34H, Q42E
notes: as for B1
B16: VH SEQ ID NO 538 / VL SEQ ID NO 406 (antibody, IgG4, V domains shown)
VH: B1 VH with S30T, G45K
VL: B1 VL with I29V, Q100A
notes: as for B1
B17: VH SEQ ID NO 530 / VL SEQ ID NO 454 (antibody, IgG4, V domains shown)
VH: B1 VH
VL: B1 VL with I29V, A34H, Q42E
notes: as for B1
B18: VH SEQ ID NO 530 / VL SEQ ID NO 430 (antibody, IgG4, V domains shown)
VH: B1 VH
VL: B1 VL with I29V, A84G
notes: as for B1
B19: VH SEQ ID NO 538 / VL SEQ ID NO 342 (antibody, IgG4, V domains shown)
VH: B1 VH with S30T, G45K
VL: B1 VL with A34H, A51T, T69R, Q100A, I106L
notes: as for B1
B20: VH SEQ ID NO 530 / VL SEQ ID NO 366 (antibody, IgG4, V domains shown)
VH: B1 VH
VL: B1 VL with I29L, Q42E
notes: as for B1
B21: VH SEQ ID NO 530 / VL SEQ ID NO 478 (antibody, IgG4, V domains shown)
VH: B1 VH
VL: B1 VL with I29V, A34H, N90Q
notes: as for B1
B22: VH SEQ ID NO 538 / VL SEQ ID NO 382 (antibody, IgG4, V domains shown)
VH: B1 VH with S30T, G45K
VL: B1 VL with I29L, A34H, Q42E
notes: as for B1
B23: VH SEQ ID NO 538 / VL SEQ ID NO 398 (antibody, IgG4, V domains shown)
VH: B1 VH with S30T, G45K
VL: B1 VL with I29V, Q42E, A51T
notes: as for B1
B24: VH SEQ ID NO 538 / VL SEQ ID NO 318 (antibody, IgG4, V domains shown)
VH: B1 VH with S30T, G45K
VL: B1 VL with A34H, Q42E, A51T
notes: as for B1
B25: VH SEQ ID NO 538 / VL SEQ ID NO 390 (antibody, IgG4, V domains shown)
VH: B1 VH with S30T, G45K
VL: B1 VL with I29V, Q42E
notes: as for B1
B26: VH SEQ ID NO 530 / VL SEQ ID NO 326 (antibody, IgG4, V domains shown)
VH: B1 VH
VL: B1 VL with A34H, Q42E, A51T, A84G, Q100A, I106L
notes: as for B1
B27: VH SEQ ID NO 538 / VL SEQ ID NO 366 (antibody, IgG4, V domains shown)
VH: B1 VH with S30T, G45K
VL: B1 VL with I29L, Q42E
notes: as for B1
B28: VH SEQ ID NO 530 / VL SEQ ID NO 438 (antibody, IgG4, V domains shown)
VH: B1 VH
VL: B1 VL with I29V, F83V
notes: as for B1
B29: VH SEQ ID NO 538 / VL SEQ ID NO 350 (antibody, IgG4, V domains shown)
VH: B1 VH with S30T, G45K
VL: B1 VL with A34H, A51T, Q100A, I106L
notes: as for B1
B30: VH SEQ ID NO 538 / VL SEQ ID NO 374 (antibody, IgG4, V domains shown)
VH: B1 VH with S30T, G45K
VL: B1 VL with I29L, A51T
notes: as for B1
B31: VH SEQ ID NO 530 / VL SEQ ID NO 390 (antibody, IgG4, V domains shown)
VH: B1 VH
VL: B1 VL with I29V, Q42E
notes: as for B1
B32: VH SEQ ID NO 538 / VL SEQ ID NO 422 (antibody, IgG4, V domains shown)
VH: B1 VH with S30T, G45K
VL: B1 VL with I29V, N90Q
notes: as for B1
B33: VH SEQ ID NO 530 / VL SEQ ID NO 406 (antibody, IgG4, V domains shown)
VH: B1 VH
VL: B1 VL with I29V, Q100A
notes: as for B1
B34: VH SEQ ID NO 538 / VL SEQ ID NO 334 (antibody, IgG4, V domains shown)
VH: B1 VH with S30T, G45K
VL: B1 VL with A34H
notes: as for B1
B35: VH SEQ ID NO 530 / VL SEQ ID NO 334 (antibody, IgG4, V domains shown)
VH: B1 VH
VL: B1 VL with A34H
notes: as for B1
B36: VH SEQ ID NO 530 / VL SEQ ID NO 470 (antibody, IgG4, V domains shown)
VH: B1 VH
VL: B1 VL with I29V, A34H
notes: as for B1
B37: VH SEQ ID NO 530 / VL SEQ ID NO 462 (antibody, IgG4, V domains shown)
VH: B1 VH
VL: B1 VL with I29V, A34H, Q100A
notes: as for B1
B38: VH SEQ ID NO 530 / VL SEQ ID NO 358 (antibody, IgG4, V domains shown)
VH: B1 VH
VL: B1 VL with A34H, A51T
notes: as for B1
B39: VH SEQ ID NO 530 / VL SEQ ID NO 446 (antibody, IgG4, V domains shown)
VH: B1 VH
VL: B1 VL with I29V, A51T
notes: as for B1
B40: VH SEQ ID NO 530 / VL SEQ ID NO 350 (antibody, IgG4, V domains shown)
VH: B1 VH
VL: B1 VL with A34H, A51T, Q100A, I106L
notes: as for B1
B41: VH SEQ ID NO 530 / VL SEQ ID NO 486 (antibody, IgG4, V domains shown)
VH: B1 VH
VL: B1 VL with I29V, A34H, A84G
notes: as for B1
B42: VH SEQ ID NO 530 / VL SEQ ID NO 414 (antibody, IgG4, V domains shown)
VH: B1 VH
VL: B1 VL with I29V
notes: as for B1
B43: VH SEQ ID NO 538 / VL SEQ ID NO 446 (antibody, IgG4, V domains shown)
VH: B1 VH with S30T, G45K
VL: B1 VL with I29V, A51T
notes: as for B1

The binders below were run against T1, recombinant human activated Factor VII (FVIIa) (human, UniProt P08709 61-212; P08709 213-466, ten glutamate residues of the Gla domain may be gamma-carboxylated) (assay: BLI (Fortebio)).
T1 construct: chains tethered by a disulfide bond; also called Factor VIIa; rFVIIa
T1 sequence 1: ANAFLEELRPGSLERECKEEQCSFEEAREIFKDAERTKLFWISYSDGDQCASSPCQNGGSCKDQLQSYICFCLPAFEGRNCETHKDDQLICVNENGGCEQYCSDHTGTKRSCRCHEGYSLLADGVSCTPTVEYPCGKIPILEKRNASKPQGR
T1 sequence 2: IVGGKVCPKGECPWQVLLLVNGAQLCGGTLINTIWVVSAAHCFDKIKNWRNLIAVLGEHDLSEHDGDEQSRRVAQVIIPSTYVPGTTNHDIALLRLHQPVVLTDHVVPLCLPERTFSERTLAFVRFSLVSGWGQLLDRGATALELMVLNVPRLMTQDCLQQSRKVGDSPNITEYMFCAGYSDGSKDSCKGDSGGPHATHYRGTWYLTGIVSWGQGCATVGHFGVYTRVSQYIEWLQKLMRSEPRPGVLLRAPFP
Procedure: All steps were performed in running buffer (20 mM HEPES buffer (pH 7.4), 150 mM NaCl, 5 mM CaCl2, 0.03% Tween 20, 1 mg/ml IgG-free BSA) at […] Antibodies were captured on anti-human tips (AHC, Fortebio) for 3 min at a concentration of 10 ug/ml. This was followed by a 3 min incubation to establish a baseline. Following this, association was monitored for 3 min using four different concentrations of VIIa (25 nm, 50 nM, 100 nM, and 200 nM), followed by a 3 mi dissociation. Sensorgrams were analysed using Fortebio data analysis software.

Row | Binder | Kd [nM]
1 | B1 | 2.5
2 | B2 | 26
3 | B3 | 0.89
4 | B4 | 0.58
5 | B5 | 2.5
6 | B6 | 1
7 | B7 | 1.2
8 | B8 | 0.94
9 | B9 | 6.9
10 | B10 | 1.2
11 | B11 | 8.3
12 | B12 | 7.1
13 | B13 | 8.3
14 | B14 | 4.2
15 | B15 | 1.1
16 | B16 | 6.1
17 | B17 | 1.1
18 | B18 | 4.9
19 | B19 | 1.2
20 | B20 | 3.2
21 | B21 | 1.4
22 | B22 | 1.2

Row | Binder | Kd [nM]
23 | B23 | 11
24 | B24 | 0.64
25 | B25 | 7
26 | B26 | 1.1
27 | B27 | 6.2
28 | B28 | 4.6
29 | B29 | 1
30 | B30 | 7.4
31 | B31 | 4.1
32 | B32 | 21
33 | B33 | 4.3
34 | B34 | 0.97
35 | B35 | 1.2
36 | B36 | 0.96
37 | B37 | 1
38 | B38 | 1
39 | B39 | 7.9
40 | B40 | 0.96
41 | B41 | 0.99
42 | B42 | 4.5
43 | B43 | 12
